Laboratory results: patent publication US20170044545, “APTAMER FOR BONDING TO AUTOTAXIN AND INHIBITING BIOLOGICAL ACTIVITY OF AUTOTAXIN, AND USE FOR SAME” (RIBOMIC INC., published 2017)

B1: SEQ 16(59) (mixed)
RNA: UCUGAGGGAAACAGGUUUUGCUCCUCGGA
modifications: dT1; 2'-deoxy G8,G14,G15,C23,C26; 2'-OMe G4,A5,G6,G7,A9,A11,A13,U16,G20,G27,G28,A29; 2'-OH A10 with PS; other pyrimidines 2'-F; 5' and 3' idT
B2: SEQ 16(63) (mixed)
RNA: UCUGAGGGAAACAGGUUUUGCUCCUCGGA
modifications: dT1; 2'-deoxy G8,G14,G15,C23,C26; 2'-OMe G4,A5,G6,G7,A9,A11,A13,G20,G27,G28,A29; 2'-OH A10 with PS; other pyrimidines 2'-F; 5' 40 kDa PEG (GL2-400GS2)-ssH linker; 3' idT
B3: SEQ 16(66) (mixed)
RNA: UCUGAGGGAAACAGGUUUUGCUCCUCGGA
modifications: dT1; 2'-deoxy G8,G14,G15,C23,C26; 2'-OMe C2,U3,G4,A5,G6,G7,A9,A11,A13,G20,U22,C24,U25,G27,G28,A29; 2'-OH A10 with PS; other pyrimidines 2'-F; 5' 40 kDa PEG (GL2-400GS2)-ssH linker; 3' idT
B4: SEQ 9 clone (ssRNA)
RNA: GGGUGGCAACAGGACAUGGAACGCGCCCCAACUGCUUGAAACUGGUUUUGCUGAGCAGUGAUGUGAGAUGCGUCUUCGUAC
modifications: 2'-F pyrimidines, 2'-OH purines
B5: SEQ 16(51) (mixed)
RNA: UCUGAGGGAAACAGGUUUUGCUCCUCGGA
modifications: 2'-deoxy G8,G14,G15,C23,C26; 2'-OMe G4,A5,G6,G7,A9,A11,A13,G20,G27,G28,A29; 2'-OH A10 with PS; other pyrimidines 2'-F; 5' 80 kDa PEG (GL2-800GS2)-ssH linker; 3' idT
B6: SEQ 16(21) (mixed)
RNA: UCUGAGGGAAACAGGUUUUGCUCCUCGGA
modifications: 2'-F all pyrimidines; 2'-OMe G4 A5 G6 G7 A9 A11 A13 G20 G27 G28 A29; 2'-OH A10; dG8 dG14 dG15; 5' and 3' idT
B7: SEQ 16(58) (mixed)
RNA: UCUGAGGGAAACAGGUUUUGCUCCUCGGA
modifications: dT1; 2'-deoxy G8,G14,G15,C23,C26; 2'-OMe G4,A5,G6,G7,A9,A11,A13,G20,C21,G27,G28,A29; 2'-OH A10 with PS; other pyrimidines 2'-F; 5' and 3' idT
B8: SEQ 16(54) (mixed)
RNA: UCUGAGGGAAACAGGUUUUGCUCCUCGGA
modifications: dT1,dC2,dT3; 2'-deoxy G8,G14,G15,C23,C24,C26; 2'-OMe G4,A5,G6,G7,A9,A11,A13,G20,G27,G28,A29; 2'-OH A10 with PS; other pyrimidines 2'-F; 5' 80 kDa PEG (GL2-800GS2)-ssH linker; 3' idT

What was measured:
Autotaxin (ENPP2, NPP2) [1] = biological target: T1, Autotaxin (ENPP2, NPP2) (Homo sapiens, UniProt Q13822 Q13822:36-863); test: inhibition
Autotaxin (ENPP2, NPP2) [2] = biological target: T1, Autotaxin (ENPP2, NPP2); test: inhibition; NPP2 assay, pNP-TMP substrate, solution A (Ca, Mg), 37 C
Autotaxin (ENPP2, NPP2) [3] = biological target: T1, Autotaxin (ENPP2, NPP2); test: SPR
Autotaxin (ENPP2, NPP2) [4] = biological target: T1, Autotaxin (ENPP2, NPP2); test: SPR; not more than 10% of SEQ 4

| Binder | IC50 (Autotaxin (ENPP2, NPP2) [1]) [nM] | also measured |
| --- | --- | --- |
| UCUGAGGGAAACAGGUUUUGCUCCUCGGA (ssRNA, as 16(4) with PS at A10) [SEQ 16(7)] | 7.3 | – |
| B1 | – | IC50 (Autotaxin (ENPP2, NPP2) [2]): 16 nM |
| B2 | – | IC50 (Autotaxin (ENPP2, NPP2) [2]): 0.8 nM |
| UCUGAGGGAAACAGGUUUUGCUCCUCGGA (mixed, as 16(4) with dC12) [SEQ 16(20)] | 44 | – |
| UCUGAGGGAAACAGGUUUUGCUCCUCGGA (mixed, as 16(21) with ssH linker instead of 5' idT) [SEQ 16(30)] | 4.4 | – |
| UCUGAGGGAAACAGGUUUUGCUCCUCGGA (mixed, as 16(4) with dT17) [SEQ 16(18)] | 29 | – |
| B3 | – | IC50 (Autotaxin (ENPP2, NPP2) [2]): 0.7 nM |
| UCUGAGGGAUACAGGUAUUGCUCCUCGGA (ssRNA, 2'-F pyrimidines, 2'-OH purines) [SEQ 27] | – | binding result (Autotaxin (ENPP2, NPP2) [3]): no binding |
| UCUGAGGGAAACAGGUUUUGCUCCUCGGA (mixed, as 16(4) with dT18) [SEQ 16(17)] | 46 | – |
| B4 | – | binding result (Autotaxin (ENPP2, NPP2) [4]): no binding |
| B5 | – | IC50 (Autotaxin (ENPP2, NPP2) [2]): 2.8 nM |
| UCUGAGGGAAACAGGUUUUGCUCCUCGGA (mixed, as 16(21) with PS at A10) [SEQ 16(22)] | 0.5 | – |
| B6 | 2.2 | – |
| B7 | – | IC50 (Autotaxin (ENPP2, NPP2) [2]): 0.6 nM |
| UCUGAGGGAAACAGGUUUUGCUCCUCGGA (mixed, as 16(21) with dT1 dC2 dT3 dC23 dC24 dC26) [SEQ 16(32)] | 1.4 | – |
| UCUGAGGGAAACAGGUUUUGCUCCUCGGA (mixed, as 16(21) with dC24) [SEQ 16(28)] | 2.7 | – |
| UCUGAGGGAAACAGGUUUUGCUCCUCGGA (mixed, as 16(4) with dT16) [SEQ 16(19)] | 51 | – |
| UCUGAGGGAAACAGGUUUUGCUCCUCGGA (mixed, as 16(4) with dG8) [SEQ 16(14)] | 6.3 | – |
| UCUGAGGGAAACAGGUUUUGCUCCUCGGA (mixed, as 16(4) with dT1 dC2 dT3) [SEQ 16(10)] | 21 | – |
| UCUGAGGGAAACAGGUUUUGCUCCUCGGA (ssRNA, as 16(4) with 5' 40 kDa PEG (GL2-400TS)-ssH linker instead of 5' idT) [SEQ 16(8)] | 42 | – |
| UCUGAGGGAAACAGGUUUUGCUCCUCGGA (mixed, as 16(4) with dG14) [SEQ 16(5)] | 6.7 | – |
| UCUGAGGGAAGCAGGUUUUGCUCCUCGGA (ssRNA, 2'-F pyrimidines, 2'-OH purines) [SEQ 35] | – | binding result (Autotaxin (ENPP2, NPP2) [3]): no binding |
| B8 | – | IC50 (Autotaxin (ENPP2, NPP2) [2]): 2.3 nM |
| UCUGAGGGAAACAGGUUUUGCUCCUCGGA (ssRNA, 2'-F all pyrimidines; 2'-OMe G4 A5 G6 G7 G27 G28 A29; other purines 2'-OH) [SEQ 16(1)] | 17 | – |
| GGGAAACAGGUUUUGCUCC (ssRNA, 2'-F pyrimidines, 2'-OH purines) [SEQ 22] | 950 | binding result (Autotaxin (ENPP2, NPP2) [4]): no binding |
| UCUGAGGGAAACAGGUUUUGCUCCUCGGA (mixed, as 16(4) with dC23 dC24) [SEQ 16(12)] | 37 | – |
| UCUGAGGGAAACAGGUUUUGCUCCUCGGA (ssRNA, as 16(1) + 5' and 3' idT) [SEQ 16(3)] | 10 | – |
| UCUGAGGGAAACAGGUUUUGCUCCUCGGA (mixed, as 16(21) with dT1 dC2 dT3) [SEQ 16(25)] | 2.3 | – |
